Columns and labels:
Type in all cases: cell-based, mouse
[1] = test system: spleen cells from RANK −/− mice; assay: CaPO4 resorption (pit formation) assay; conditions: 5 days in 40 ng/ml CSF-1 and 200 ng/ml mRANK-L on CaPO4 film
Source text: The resorption of CaPO4, upon which this assay is based, is considered to be a measure of osteoclast activity. Spleen cells were isolated from 3-6 week old RANK −/− mice and treated as described in Example 9 to remove cells expressing the CD3, Ter-119, and GR-1 antigens. Cells not expressing any of these antigens were harvested and infected as described in Example 9 with retroviral vector particles containing full-length or TRAF6 binding site deletion mutants of RANK.
Following infection, the spleen cells were harvested and plated in MEM containing 10% fetal bovine serum containing 40 ng/ml CSF-1 and 200 ng/ml mRANK-L onto 16 well quartz slides coated with a thin film of CaPO4 (Osteologic, BD Biosystems). After 5 days in culture, the slides were washed, the cells removed by washing with bleach, and the slides washed again with buffer. […] The number of pits in the CaPO4 film is a measure of the extent to which the RANK-L induced the cells grown on that slide to differentiate into osteoclasts.
If desired, the CaPO4 film can be stained using a 0.5% solution of alizarin red for 4 to 5 minutes followed by washing in water. After staining, the resorptive lacunae are visualized by phase contrast microscopy as a clear area on a red background.

c-src tyrosine kinase = assay: c-src immune complex kinase assay in RANK −/− osteoclast precursors infected with RANK retrovirus; conditions: cells differentiated after retroviral infection; background = uninfected RANK −/− cells
Protocol: Experiments were conducted in which DNA encoding wild-type or human RANK/TRAF6 binding mutant (RANK Δ340-421) was introduced into hematopoietic cells isolated from RANK −/− mice. Full-length and mutant human RANK DNAs were subcloned into the pBMNZ retroviral vector as previously described (Kinsella and Nolan, 1996, Human Gene Therapy 7:1405-1413). Infectious RANK-containing retrovirus was produced in 293-E Phoenix packaging cells as described (Kinsella and Nolan, 1996). Supernatants from these cells were used as a source of infectious virus particles.
The generation of the RANK −/− mice used in these assays has been described previously (Dougall et al., 1999). Spleen cells were isolated from 3-6 week old RANK−/− mice and enriched for osteoclast precursors by depleting the initial cell population of various types of cells other than osteoclast precursors. For this “depletion” step, the cells were incubated with biotinylated antibodies against CD3 (specific for T cells), Ter-119 (specific for erythrocytes), and GR-1 (specific for granulocytes). After the antibodies had bound to their respective target cells, streptavidin-conjugated magnetic beads were added to the culture, and the mixture of cells was passed over magnetic columns (MACS depletion columns; MILLTENNYI). […]
To induce c-src and F-actin rings, recombinant mRANK-L/leucine zipper protein was added to the cultures at a concentration of 1 μg/ml for various times after which the cells were lysed in a buffer containing 50 mM HEPES (pH 7.2), 10% glycerol, 250 mM NaCl and 1% Triton X-100. […] C-src activity in the immune complex was monitored using a commercially available assay kit (Upstate Biotechnology, Lake Placid, N.Y.). […] The phosphorylated substrate peptide was then separated from the residual labeled ATP using phosphocellulose paper and labeled peptide was quantified using a scintillation counter. […]

[2] = test system: primary hematopoietic cells from the RANK −/− mice; assay: F-actin ring formation, phalloidin staining; conditions: 5 days in 40 ng/ml CSF-1 and 200 ng/ml mRANK-L
Source text: To detect F-actin rings, cells are fixed, such as by exposure to 3% paraformaldehyde, and visualized by staining cells with a fluorescent probe that binds specifically with actin. A suitable fluorescent tag is phalloidin, which can be obtained from Molecular Probes, Eugene, Oreg. The fluorescent signal is detected, for example, using a standard fluorescent microscope, and the number of cells having F-actin rings is visually quantified. An F-actin ring is identified as a continuous ring of F-actin at the periphery of a cell, and these distinct structures are visible through a microscope.
A procedure to detect F-actin rings was carried out as follows. Primary hematopoietic cells from the RANK −/− mice were infected with retroviral constructs encoding either the full-length human RANK cDNA or the RANK/TRAF6 binding mutant (RANK Δ340-421). Cells were cultured on LabTek Chamber slides with #1 borosilicate coverglasses (Nalge/Nunc). After incubation for 5 days in MEM containing 10% fetal bovine serum containing 40 ng/ml CSF-1 and 200 ng/ml mRANK-L. The media was aspirated, washed twice in PBS and then fixed in a solution of 3% paraformaldehyde for 10 minutes, followed by quenching in 50 mM NH4Cl. […] The fluorescent signal was detected using a standard fluorescent microscope, and F-actin rings were identified as continuous rings of F-actin at the periphery of individual cells.

B1: RANK Δ340-421: human RANK (SEQ ID NO:2) with the TRAF6 binding site (amino acids 340-421) deleted (protein, listed as Homo sapiens)
chain: MAPRARRRRPLFALLLLCALLARLQVALQIAPPCTSEKHYEHLGRCCNKCEPGKYMSSKCTTTSDSVCLPCGPDEYLDSWNEEDKCLLHKVCDTGKALVAVVAGNSTTPRRCACTAGYHWSQDCECCRRNTECAPGLGAQHPLQLNKDTVCKPCLAGYFSDAFSSTDKCRPWTNCTFLGKRVEHHGTEKSDAVCSSSLPARKPPNEPHVYLPGLIILLLFASVALVAAIIFGVCYRKKGKALTANLWHWINEACGRLSGDKESSGDSCVSTHTANFGQQGACEGVLLLTLEEKTFPEDMCYPDQGGVCQGTCVGGGPYAQGEDARMLSLVSKTEIEEDSLQKEVDSGHCPHWAASPSPNWADVCTGCRNPPGEDCEPLVGSPKRGPLPQCAYGMGLPPEEEASRTEARDQPEDGADGRLPSSARAGAGSGSSPGGQSPASGNVTGNSNSTFISSGQVMNFKGDIIVVYVSQTSQEGAAAAAEPMGRPVQEETLARRDSFAGNGPRFPDPCGGPEGLREPEKASRPVQEQGGAKA
For B1, the CaPO4 resorption [1] was “insignificant levels of CaPO4 resorption”, the c-src activity (c-src tyrosine kinase) was “not discernibly different from background levels” and the “cells with F-actin rings” value [2] was “no F-actin rings were discerned”.

— patent US7572594B2, “Screening assays for agonists or antagonists or receptor activator of NF-κB” (Immunex Corporation, priority 2000, dated 2009)
